Measurements reported in patent publication US20260242735A1.

Legend:
[1] = biological target: human wild-type CD33 (human) (UniProt P20138); assay: flow cytometry, IgG at 0.25 ug/ml on HEK293-T cells expressing CD33 against vector alone
[2] = biological target: human CD33 P48L (human) (UniProt P20138); assay: flow cytometry on transfected cells, IgG
[3] = biological target: human CD33 I47L (human) (UniProt P20138); assay: flow cytometry on transfected cells, IgG
[4] = biological target: human CD33 P48W (human) (UniProt P20138); assay: flow cytometry on transfected cells, IgG
[5] = biological target: human CD33 P48V (human) (UniProt P20138); assay: flow cytometry on transfected cells, IgG
[6] = biological target: human CD33 I47G (human) (UniProt P20138); assay: flow cytometry on transfected cells, IgG
[7] = biological target: human CD33 Y50N (human) (UniProt P20138); assay: flow cytometry on transfected cells, IgG
[8] = biological target: human CD33 I47Q (human) (UniProt P20138); assay: flow cytometry on transfected cells, IgG
[9] = biological target: human CD33 I47F (human) (UniProt P20138); assay: flow cytometry on transfected cells, IgG
[10] = biological target: human CD33 Y50L (human) (UniProt P20138); assay: flow cytometry on transfected cells, IgG
[11] = biological target: human CD33 I47V (human) (UniProt P20138); assay: flow cytometry on transfected cells, IgG
[12] = biological target: human CD33 P46S (human) (UniProt P20138); assay: flow cytometry on transfected cells, IgG
[13] = biological target: human CD33 G220A (human) (UniProt P20138); assay: alanine scan, flow cytometry
[14] = biological target: human CD33 L229A (human) (UniProt P20138); assay: alanine scan, flow cytometry
[15] = biological target: human CD33 L197A (human) (UniProt P20138); assay: alanine scan, flow cytometry
[16] = biological target: human CD33 N237A (human) (UniProt P20138); assay: alanine scan, flow cytometry
[17] = biological target: human CD33 V257A (human) (UniProt P20138); assay: alanine scan, flow cytometry
[18] = biological target: human CD33 G245A (human) (UniProt P20138); assay: alanine scan, flow cytometry
[19] = biological target: human CD33 V214A (human) (UniProt P20138); assay: alanine scan, flow cytometry
[20] = biological target: human CD33 T208A (human) (UniProt P20138); assay: alanine scan, flow cytometry
[21] = biological target: human CD33 V234A (human) (UniProt P20138); assay: alanine scan, flow cytometry
[22] = biological target: human CD33 T222A (human) (UniProt P20138); assay: alanine scan, flow cytometry
[23] = biological target: human CD33 P244A (human) (UniProt P20138); assay: alanine scan, flow cytometry
[24] = biological target: human CD33 Y233A (human) (UniProt P20138); assay: alanine scan, flow cytometry
[25] = biological target: human CD33 G266A (human) (UniProt P20138); assay: alanine scan, flow cytometry
[26] = biological target: human CD33 R225A (human) (UniProt P20138); assay: alanine scan, flow cytometry
[27] = biological target: human CD33 L270A (human) (UniProt P20138); assay: alanine scan, flow cytometry
[28] = biological target: human CD33 A219S (human) (UniProt P20138); assay: alanine scan, flow cytometry
[29] = biological target: human CD33 L210A (human) (UniProt P20138); assay: alanine scan, flow cytometry
[30] = biological target: human CD33 N230A (human) (UniProt P20138); assay: alanine scan, flow cytometry
[31] = biological target: human CD33 G260A (human) (UniProt P20138); assay: alanine scan, flow cytometry
[32] = biological target: human CD33 Q213A (human) (UniProt P20138); assay: alanine scan, flow cytometry
[33] = biological target: human CD33 H259A (human) (UniProt P20138); assay: alanine scan, flow cytometry
[34] = biological target: human CD33 T268A (human) (UniProt P20138); assay: alanine scan, flow cytometry
[35] = biological target: human CD33 K250A (human) (UniProt P20138); assay: alanine scan, flow cytometry
[36] = biological target: human CD33 I199A (human) (UniProt P20138); assay: alanine scan, flow cytometry
[37] = biological target: human CD33 D246A (human) (UniProt P20138); assay: alanine scan, flow cytometry
[38] = biological target: human CD33 G218A (human) (UniProt P20138); assay: alanine scan, flow cytometry
[39] = biological target: human CD33 K215A (human) (UniProt P20138); assay: alanine scan, flow cytometry
[40] = biological target: human CD33 R254A (human) (UniProt P20138); assay: alanine scan, flow cytometry
[41] = biological target: human CD33 S248A (human) (UniProt P20138); assay: alanine scan, flow cytometry
[42] = biological target: human CD33 G249A (human) (UniProt P20138); assay: alanine scan, flow cytometry
[43] = biological target: human CD33 V267A (human) (UniProt P20138); assay: alanine scan, flow cytometry
[44] = biological target: human CD33 A217S (human) (UniProt P20138); assay: alanine scan, flow cytometry
[45] = biological target: human CD33 P201A (human) (UniProt P20138); assay: alanine scan, flow cytometry
[46] = biological target: human CD33 G247A (human) (UniProt P20138); assay: alanine scan, flow cytometry
[47] = biological target: human CD33 G256A (human) (UniProt P20138); assay: alanine scan, flow cytometry
[48] = biological target: human CD33 E224A (human) (UniProt P20138); assay: alanine scan, flow cytometry
[49] = biological target: human CD33 P238A (human) (UniProt P20138); assay: alanine scan, flow cytometry
[50] = biological target: human CD33 A269S (human) (UniProt P20138); assay: alanine scan, flow cytometry
[51] = biological target: human CD33 Q204A (human) (UniProt P20138); assay: alanine scan, flow cytometry
Sequence of human CD33 Q204A (human) (P20138 18-364 Q204A limits assumed): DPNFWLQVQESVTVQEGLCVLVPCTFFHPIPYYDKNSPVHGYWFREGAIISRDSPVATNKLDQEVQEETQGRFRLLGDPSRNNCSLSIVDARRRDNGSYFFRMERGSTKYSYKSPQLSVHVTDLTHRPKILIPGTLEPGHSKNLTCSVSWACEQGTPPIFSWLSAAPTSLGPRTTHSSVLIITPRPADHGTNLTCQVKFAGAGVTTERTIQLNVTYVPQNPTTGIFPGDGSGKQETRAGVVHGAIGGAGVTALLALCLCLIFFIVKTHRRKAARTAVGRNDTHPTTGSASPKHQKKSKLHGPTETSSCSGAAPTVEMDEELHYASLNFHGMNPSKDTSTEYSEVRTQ

Sequence of human CD33 I47F (human) (P20138 18-364 I47F limits assumed): as the sequence (P20138 18-364 Q204A limits assumed) above, with I30F, A187Q counted along it
Sequence of human CD33 V257A (human) (P20138 18-364 V257A limits assumed): as the sequence (P20138 18-364 Q204A limits assumed) above, with A187Q, V240A counted along it
Sequence of human CD33 I47L (human) (P20138 18-364 I47L limits assumed): as the sequence (P20138 18-364 Q204A limits assumed) above, with I30L, A187Q counted along it
Sequence of human CD33 G245A (human) (P20138 18-364 G245A limits assumed): as the sequence (P20138 18-364 Q204A limits assumed) above, with A187Q, G228A counted along it
Sequence of human CD33 T208A (human) (P20138 18-364 T208A limits assumed): as the sequence (P20138 18-364 Q204A limits assumed) above, with A187Q, T191A counted along it
Sequence of human CD33 R225A (human) (P20138 18-364 R225A limits assumed): as the sequence (P20138 18-364 Q204A limits assumed) above, with A187Q, R208A counted along it
Sequence of human CD33 V267A (human) (P20138 18-364 V267A limits assumed): as the sequence (P20138 18-364 Q204A limits assumed) above, with A187Q, V250A counted along it
Sequence of human CD33 D246A (human) (P20138 18-364 D246A limits assumed): as the sequence (P20138 18-364 Q204A limits assumed) above, with A187Q, D229A counted along it
Sequence of human CD33 A269S (human) (P20138 18-364 A269S limits assumed): as the sequence (P20138 18-364 Q204A limits assumed) above, with A187Q, A252S counted along it
Sequence of human CD33 I199A (human) (P20138 18-364 I199A limits assumed): as the sequence (P20138 18-364 Q204A limits assumed) above, with I182A, A187Q counted along it
Sequence of human CD33 I47V (human) (P20138 18-364 I47V limits assumed): as the sequence (P20138 18-364 Q204A limits assumed) above, with I30V, A187Q counted along it
Sequence of human CD33 L229A (human) (P20138 18-364 L229A limits assumed): as the sequence (P20138 18-364 Q204A limits assumed) above, with A187Q, L212A counted along it
Sequence of human CD33 A219S (human) (P20138 18-364 A219S limits assumed): as the sequence (P20138 18-364 Q204A limits assumed) above, with A187Q, A202S counted along it

Work on Refmab #7 (WM53) (antibody) yielded a Signal:Background (signal:background ratio) [1] of 32, a Mean % WT Binding [2] of 0.3 % WT binding and a Mean % WT Binding [3] of 37.4 % WT binding. The Mean % WT Binding [4] was 0.7 % WT binding, the Mean % WT Binding [5] was 0.9 % WT binding and the Mean % WT Binding [6] was 15.1 % WT binding. It also gave a Mean % WT Binding [7] of 4.7 % WT binding, a Mean % WT Binding [8] of 8.2 % WT binding and a Mean % WT Binding [9] of 85.2 % WT binding. The Mean % WT Binding [10] was 4.7 % WT binding, the Mean % WT Binding [11] was 97.4 % WT binding and the Mean % WT Binding [12] was 96.4 % WT binding. For the same substance, the Mean % WT Binding [13] was 120 % WT binding, the Mean % WT Binding [14] was 114 % WT binding and the Mean % WT Binding [15] was 115 % WT binding. For the same substance, the Mean % WT Binding [16] was 116 % WT binding, the Mean % WT Binding [17] was 124 % WT binding and the Mean % WT Binding [18] was 122 % WT binding. It also gave a Mean % WT Binding [19] of 120 % WT binding, a Mean % WT Binding [20] of 102 % WT binding and a Mean % WT Binding [21] of 98.6 % WT binding. The Mean % WT Binding [22] was 110 % WT binding, the Mean % WT Binding [23] was 99 % WT binding and the Mean % WT Binding [24] was 109 % WT binding. It also gave a Mean % WT Binding [25] of 110 % WT binding, a Mean % WT Binding [26] of 99.8 % WT binding and a Mean % WT Binding [27] of 99.8 % WT binding. For the same substance, the Mean % WT Binding [28] was 121 % WT binding, the Mean % WT Binding [29] was 98.6 % WT binding and the Mean % WT Binding [30] was 100 % WT binding. The Mean % WT Binding [31] was 87.2 % WT binding, the Mean % WT Binding [32] was 103 % WT binding and the Mean % WT Binding [33] was 119 % WT binding. The Mean % WT Binding [34] was 148 % WT binding, the Mean % WT Binding [35] was 118 % WT binding and the Mean % WT Binding [36] was 115 % WT binding. For the same substance, the Mean % WT Binding [37] was 99.5 % WT binding, the Mean % WT Binding [38] was 123 % WT binding and the Mean % WT Binding [39] was 145 % WT binding. It also gave a Mean % WT Binding [40] of 126 % WT binding, a Mean % WT Binding [41] of 113 % WT binding and a Mean % WT Binding [42] of 114 % WT binding. For the same substance, the Mean % WT Binding [43] was 92.6 % WT binding, the Mean % WT Binding [44] was 114 % WT binding and the Mean % WT Binding [45] was 110 % WT binding. It also gave a Mean % WT Binding [46] of 123 % WT binding, a Mean % WT Binding [47] of 106 % WT binding and a Mean % WT Binding [48] of 126 % WT binding. It also gave a Mean % WT Binding [49] of 129 % WT binding, a Mean % WT Binding [50] of 118 % WT binding and a Mean % WT Binding [51] of 117 % WT binding.
